Columns and labels:
[1] = tested on: patients with chronic gout refractory to conventional therapy; test: Infusion reactions with the dosage regimen described herein (stopping at SUA >6 mg/dL); format: in vivo, human; details: dosage regimen as described herein, strict adherence to stopping at serum uric acid greater than 6 mg/dL
Procedure: Study Design—In order to evaluate a tolerizing regimen of pegloticase (i.e., the main study), an open label, multicenter, 24-week study is performed. Eligible subjects weighing <120 kg receive pegloticase 8 mg intravenously (IV) on a weekly basis (week 1 through week 3—“Tolerizing Period”), followed by 8 mg IV every 2 weeks through week 25 for a total of 14 doses. Subjects weighing ≥120 kg are sequentially assigned to 1 of 3 different loading doses (8, 12, and 16 mg) on Study Day 1, and then receive 8 mg on weeks 2 and 3, followed by 8 mg every 2 weeks through week 25 for a total of 14 doses.
Eligible subjects weighing <120 kg will receive pegloticase 8 mg IV every 2 weeks through week 25 for a total of 13 doses. Subjects will also receive AZA (1.25 mg/kg orally daily for 1 week then 2.5 mg/kg orally daily) beginning 2 weeks prior to the first dose of pegloticase through week 25. Subjects are monitored for efficacy and safety endpoints, including hematology and liver function tests, through week 25. Subjects also have blood drawn for trough pegloticase, anti-pegloticase antibody, and anti-PEG antibody levels prior to each dose after week 1, on weeks 3, 5, 7, 9, 11, 13, 15, 17, 19, 21, 23, and 25; and sampling for trough AZA metabolite levels prior to all doses of pegloticase. […]

[2] = KXX exposure (AUC) by patient weight and age; format: in vivo, human
Description: In some embodiments, heavier and/or younger patients may have a higher incidence of anti-KXX antibodies, or may have higher anti-KXX drug titers, than lighter and/or older patients. In other embodiments, lighter and/or older patients may have higher drug loading of KXX than heavier and/or younger patients. In some embodiments, lighter patients may have higher exposures of KXX than heavier patients. For example, in some embodiments, lighter patients may have greater than 2-fold exposure to KXX than heavier patients. In some embodiments, lower drug levels in a patient may result in anti-KXX antibodies. […] In other embodiments, older patients may have higher exposures of KXX than younger patients. For example, in some embodiments, older patients may have greater than 2-fold exposure to KXX than younger patients. […] Thus, in some embodiments, additional 8-mg doses of KXX may be beneficial for younger and/or heavier patients. In other embodiments, younger and/or heavier patients may benefit from one or more loading doses of 16 mg of KXX.

[3] = tested on: anti-pegloticase antibodies, anti-PEG antibodies; test: Immunogenicity in clinical trials: antibody incidence and its relation to response and infusion reactions; format: in vivo, human
Procedure: A relationship between the loss of urate-lowering efficacy, incidence of IRs, and high-titer antibody formation was identified in a post-hoc analysis of the pooled data from the Phase 3 studies. […] In one study, 69 (41%) of 169 patients receiving pegloticase developed high titer anti-pegloticase antibodies and subsequently lost response to the drug. In a second study, only 1 of 52 participants with high antibody titers maintained a response to pegloticase (serum urate <6 mg/dL). In addition, 60% participants with high titers developed IR. Anti-pegloticase antibodies were largely directed to the polyethylene glycol (PEG) portion of the molecule and altered the pharmacokinetic clearance of pegloticase, resulting in inhibition of SUA lowering activity. […] In addition, 31 of 52 (60%) patients with titers exceeding 1:2430 developed IRs. […] By preventing the formation of anti-pegloticase antibodies, a tolerizing dose regimen should prevent loss of response to the drug and decrease the incidence of IRs associated with it.
Anti-pegloticase antibodies developed in 92% of patients treated with KXX every 2 weeks, and 28% for placebo. Anti-PEG antibodies were also detected in 42% of patients treated with KXX. High anti-pegloticase antibody titer was associated with a failure to maintain pegloticase-induced normalization of uric acid. The impact of anti-PEG antibodies on patients' responses to other PEG-containing therapeutics is unknown.
There was a higher incidence of infusion reactions in patients with high anti-pegloticase antibody titer: 53% (16 of 30) in the KXX every 2 weeks group compared to 6% in patients who had undetectable or low antibody titers.

[4] = tested on: patients with refractory chronic gout; details: Phase 2 program; cited from earlier work
[5] = tested on: patients with symptomatic gout; details: after doses of 4 to 12 mg, within 24 to 72 hours, from 11.1±0.6 mg/dL; cited from earlier work
[6] = tested on: patients with chronic gout refractory to conventional therapy; details: bi-weekly or every 4 weeks for up to 30 months, 149 patients; cited from earlier work

Substance: pegloticase
- infusion reactions that occurred [1]: only a single infusion reaction occurred
- mean area under the curve (AUC) ([2]; heavier patients): about 4.04 mg/L
- exposure to KXX, lighter versus heavier patients ([2]; human, in vivo): greater than 2 fold
- exposure to KXX, older versus younger patients ([2]; human, in vivo): greater than 2 fold
- mean area under the curve (AUC) ([2]; lighter patients): about 8.92 mg/L
- mean area AUC ([2]; older patients): about 8.86 mg/L
- mean area AUC ([2]; younger patients): about 3.93 mg/L
- patients who developed anti-pegloticase antibodies ([3]; KXX every 2 weeks): 92%
- incidence of infusion reactions in patients with high anti-pegloticase antibody titer ([3]; KXX every 2 weeks group, 16 of 30): 53%
- incidence of infusion reactions in patients with undetectable or low antibody titers ([3]; human, in vivo): 6%
- patients with anti-PEG antibodies detected ([3]; patients treated with KXX): 42%
- dose-response plateau dose [4]: 12 mg
- minimally effective dose [4]: 4 mg
- safe and optimally effective dose [4]: 8 mg
- plasma urate concentration (pUAc), mean±SD [5]: 1.0±0.5 mg/dL
- long-term safety [6]: No new safety signals were observed
